Entries after “also recorded” stand apart in the source; their conditions may differ.
Legend:
murine Notum-His = molecular target: T1, murine Notum-His (Mus musculus, UniProt Q8R116); assay: Neutralization of murine Notum in 293.TCF assay; assay type: cell-based
T1 construct: His tag; made in house
T1 sequence (Q8R116 20-503): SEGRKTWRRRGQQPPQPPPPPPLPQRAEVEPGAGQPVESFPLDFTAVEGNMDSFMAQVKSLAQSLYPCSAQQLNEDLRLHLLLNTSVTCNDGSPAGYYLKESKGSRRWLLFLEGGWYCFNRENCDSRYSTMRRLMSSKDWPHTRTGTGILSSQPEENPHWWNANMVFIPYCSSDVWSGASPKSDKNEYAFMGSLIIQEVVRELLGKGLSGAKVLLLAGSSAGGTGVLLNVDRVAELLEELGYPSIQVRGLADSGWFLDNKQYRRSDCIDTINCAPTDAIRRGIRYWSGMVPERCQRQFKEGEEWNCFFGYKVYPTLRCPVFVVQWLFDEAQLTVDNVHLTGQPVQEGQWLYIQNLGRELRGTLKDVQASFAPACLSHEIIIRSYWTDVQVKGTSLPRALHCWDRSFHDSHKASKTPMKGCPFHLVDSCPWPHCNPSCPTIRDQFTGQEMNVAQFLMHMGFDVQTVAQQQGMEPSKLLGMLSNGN
Description: Using the 293.TCF cells, purified SC2.D2.2 and SC2.A106 antibodies were tested for their ability to neutralize murine Notum-His or macaque Notum-Fc activity as follows. 2.5×10^4 293.TCF cells were plated per well of a 96-well tissue culture plate in 50 μL of serum-free medium. After 23 hours of serum starvation, 10 μL of DMEM+0.2% FBS containing the Notum proteins at various concentrations were mixed with 15 μL of purified antibody at various concentrations, and allowed to incubate for 5 minutes at room temperature. The 25 μL antibody/Notum mixture was then added to the 293.TCF cells. After 1 hour, 25 μL of Wnt3A or control L-cell CM were added to each well. Eighteen hours after addition of CM, 100 μL of One-Glo solution (ProMega Corp.) was added to each well. The contents of each well were mixed thoroughly to lyse the cells, 100 μL of lysate transferred to black 96-well plates, and the luminescence read after 5 minutes.

hNotum = molecular target: T2, hNotum (Homo sapiens, UniProt Q6P988); assay: Inhibition of hNotum esterase activity; assay type: biochemical; settings: preincubation with hNotum
T2 construct: 8x-His; Strep-tag II; IgK signal peptide/leader of the pSEC-CAG vector (N); made in house; host or cells: HEK293T (adherent) / suspension 293 cells
T2 sequence (Q6P988 20-496): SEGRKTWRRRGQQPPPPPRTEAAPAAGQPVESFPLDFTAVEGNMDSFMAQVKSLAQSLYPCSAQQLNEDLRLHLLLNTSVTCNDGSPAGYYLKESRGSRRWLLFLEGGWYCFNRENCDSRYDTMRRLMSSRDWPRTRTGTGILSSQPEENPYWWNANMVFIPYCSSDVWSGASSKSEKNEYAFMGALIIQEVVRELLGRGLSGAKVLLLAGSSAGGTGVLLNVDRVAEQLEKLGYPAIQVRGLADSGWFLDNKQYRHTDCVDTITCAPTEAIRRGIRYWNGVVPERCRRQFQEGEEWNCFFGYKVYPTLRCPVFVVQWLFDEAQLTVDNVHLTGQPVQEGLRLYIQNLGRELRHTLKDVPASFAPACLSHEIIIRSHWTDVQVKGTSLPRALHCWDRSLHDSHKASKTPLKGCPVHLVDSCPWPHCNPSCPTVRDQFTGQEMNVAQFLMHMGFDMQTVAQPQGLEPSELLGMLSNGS
Description: Briefly, PNPA or PNPB were dissolved/diluted in isopropanol to final concentrations of 10 mM. These substrate solutions were diluted 1:10 into assay buffer (0.1% gum arabic, 2.3 mg/mL sodium dexoycholate, 1×PBS) and incubated with defined amounts of hNotum enzyme, and the enzymatic release of the chromophore p-nitrophenol monitored by absorbance measurements at 405 nm.
The results presented immediately above indicate that the measured esterase activity may be used to provide an assay that allows for the further characterization of the disclosed Notum modulators. […] As may be seen in FIG. 18A an increase in hNotum levels increases measured enzymatic activity even, to some extent, in the case where the SC2.D2.2 antibody is present. Conversely, FIG. 18B provides a dose response curve of measured enzymatic activity where the amount of hNotum is fixed at 1 μg/mL and the concentration of SC2.D2.2 is varied. […] In contrast a control antibody (MOPC) has no effect on the esterase activity of Notum (data not shown).

[1] = molecular target: T3, porcine pancreatic lipase (Sus scrofa, UniProt P00591); assay: Inhibition of porcine pancreatic lipase (Tween 20); assay type: biochemical
T3 construct: purchased Sigma Aldrich
T3 sequence (P00591 1-450): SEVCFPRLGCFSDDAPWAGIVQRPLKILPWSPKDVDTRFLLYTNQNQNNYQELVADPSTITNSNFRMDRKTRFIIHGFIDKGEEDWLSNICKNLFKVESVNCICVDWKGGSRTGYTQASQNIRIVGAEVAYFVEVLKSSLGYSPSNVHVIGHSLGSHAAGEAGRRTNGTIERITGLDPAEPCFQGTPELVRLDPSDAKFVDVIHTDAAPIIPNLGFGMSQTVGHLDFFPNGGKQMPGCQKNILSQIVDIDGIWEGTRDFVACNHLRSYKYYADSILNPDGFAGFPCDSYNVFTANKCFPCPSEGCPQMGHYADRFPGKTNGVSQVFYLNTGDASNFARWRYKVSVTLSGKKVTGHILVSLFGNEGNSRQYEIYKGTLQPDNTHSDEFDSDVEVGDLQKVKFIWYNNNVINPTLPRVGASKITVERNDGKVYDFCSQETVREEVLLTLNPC
Description: Briefly, recombinant hNotum (1 μg/well) was added to an assay buffer containing 50 mM Tris, pH 7.4, 33.3 mM CaCl2, and 0.33% Tween-20. When the Tween 20 monolauryl group is cleaved by lipases (e.g. hNotum), the free fatty acid forms an insoluble complex with the Ca^2+ cations resulting in a turbid solution, the OD of which can be measured at 405 nm to provide a measure of lipase activity. As a positive control, the activity of porcine pancreatic lipase (Sigma Aldrich) was measured in the same assay.
In order to take advantage of this enzymatic property and further exemplify the properties of the present invention, an assay was run to determine the effects of Notum modulators on the lipolytic activity of Notum. To that end, various concentrations of SC2.D2.2 were preincubated with hNotum for a set period prior to adding the mixture to the assay buffer and measuring the resulting enzymatic activity as described above. The results of the assay are graphically represented in FIG. 20

[2] = molecular target: T4, mouse Notum (construct not specified at the place of use) (mouse, UniProt Q8R116 20-503, limits assumed); assay: ELISA, Notum coated directly on plate
T4 construct: Purified antigen from transient transfection of mouse Notum cDNA; also called murine Notum
T4 sequence (looked up): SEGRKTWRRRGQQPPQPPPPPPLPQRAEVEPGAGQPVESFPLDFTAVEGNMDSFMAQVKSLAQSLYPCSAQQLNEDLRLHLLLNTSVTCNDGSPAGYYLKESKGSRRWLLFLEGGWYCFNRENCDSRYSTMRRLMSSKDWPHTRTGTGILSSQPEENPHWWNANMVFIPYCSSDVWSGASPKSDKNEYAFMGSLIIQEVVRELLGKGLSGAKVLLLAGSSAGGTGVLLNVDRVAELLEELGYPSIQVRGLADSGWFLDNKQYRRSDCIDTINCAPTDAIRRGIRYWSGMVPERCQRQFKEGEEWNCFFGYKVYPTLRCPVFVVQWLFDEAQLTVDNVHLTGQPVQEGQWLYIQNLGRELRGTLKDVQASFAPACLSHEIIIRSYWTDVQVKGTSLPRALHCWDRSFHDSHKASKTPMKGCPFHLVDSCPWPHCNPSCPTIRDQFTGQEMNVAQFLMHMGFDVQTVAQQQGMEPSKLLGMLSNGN

B1: SC2.D2.2 (antibody, V domains shown)
VH: DVQLVESGGGLVQPGGSRKISCAASGFTFSSYGMHWVRQAPEKGLEWVAYISSSTVTTYYADTVKGRFTISRDNANNTLFLQMTSLRSEDTAMYYCSRQNWDGGYFDVWGAGTTVTVSS
VL: DIVLTQSLASLAVSLGQRATISCRASKSVSSSGYSYMHWYQQKPGQPPKLLIYLASNLESGVPARFSGSGSGTDFTLNIHPVEEEDAATYYCQHSRALPLTFGAGTKLELKR
notes: also called murine SC2.D2.2
inhibition of murine Notum activity (murine Notum-His): did not inhibit; also recorded: without inhibiting murine or macaque versions of the protein
effect on esterase activity of hNotum (hNotum): greatly reduced esterase activity
effect on lipase activity of porcine pancreatic lipase [1]: not severely impacting the lipase activity
binding result [2]: no binding

Reference: patent publication US20130224191A1, “NOTUM PROTEIN MODULATORS AND METHODS OF USE” (priority 2010, published 2013)
